# B1: UBE2D1 (R&D) (enzyme)
# chain: not shown
# Target: BSA
# Assay: ITC
binder,measurement,value
B1,Kd,> 10 mM
